Substrate: C=C1C[C@]23C[C@@]1(O)CC[C@H]2[C@@]12CCC[C@@](C)(C(=O)O1)[C@H]2[C@@H]3C(=O)O
Experiment: tritiated water release from [3H3]GA20, Michaelis-Menten fit (Origin)
Assay type: biochemical, Arabidopsis thaliana
Conditions: labelled compound (possible tritium isotope effect), 4 mM 2-oxoglutarate, 0.5 mM FeSO4, 4 mM ascorbate, 4 mM DTT, BSA, catalase, 100 mM Tris-HCl pH 7.9, 30 °C

B1: AtGA3OX4 (Arabidopsis thaliana) (protein)
chain: MPSLAEEICIGNLGSLQTLPESFTWKLTAADSLLRPSSAVSFDAVEESIPVIDLSNPDVTTLIGDASKTWGAFQIANHGISQKLLDDIESLSKTLFDMPSERKLEAASSDKGVSGYGEPRISPFFEKKMWSEGFTIADDSYRNHFNTLWPHDHTKYCGIIQEYVDEMEKLASRLLYCILGSLGVTVEDIEWAHKLEKSGSKVGRGAIRLNHYPVCPEPERAMGLAAHTDSTILTILHQSNTGGLQVFREESGWVTVEPAPGVLVVNIGDLFHILSNGKIPSVVHRAKVNHTRSRISIAYLWGGPAGDVQIAPISKLTGPAEPSLYRSITWKEYLQIKYEVFDKAMDAIRVVNPTN
notes: pET32 Xa/LIC N-terminal poly(His)-thioredoxin fusion expressed in E. coli BL21 (DE3), tag cut at engineered thrombin site, Superdex 75
- Km: 0.82 µM

Source: PMC1262730, “Purification and kinetic studies of recombinant gibberellin dioxygenases” (BMC Plant Biology, 2005)
